Measurements as given in article PMC4243253 (Biochemical Journal, 2014).

B1: Burkholderia cenocepacia kynurenine formamidase KynB (enzyme)
chain: MDTLWDISPPVSPATPVWPGDTPVAVERVWRMEAGSPVNVARLTLSPHTGAHCDAPLHYDADGAPIGAVPLDTYLGPCRVIHCIGAAPVVRPADVEAALDGVPPRVLLRTYARAAVEQWDSNFCAVAPDTVDLLAAHGVKLIGIDTPSLDPQESKTMDAHRRVRAHRMAILEGIVLDDVPPGDYELIALPLKFATLDASPVRAVLRALPAQAS
notes: also called BcKynB; KFase
B2: Pseudomonas aeruginosa kynurenine formamidase KynB, His-tagged (enzyme)
chain: MTSLRYWDISPALDPNTPTWPGDTPFQQEWAARLDEQCPVNVGRITLSPHTGAHVDGPLHYRADGLPIGQVPLDIYMGPCRVIHCIGANPLVTPEHLAGQLDDLPSRVLLRTFERVPANWPEGFCAIAPATIECLAERGVRLVGIDTPSLDPQHSKTLDAHHAVGRHGMAILEGVVLDDVPAGDYELLALPLKFTHLDASPVRAVLRALPTAE
notes: also called PaKynB; PaKynB-His; source: E. coli BL21(DE3)pLysS, purified (HisTrap, SEC Superdex75); not shown: His6, N-terminal, kept

Target: the molecule itself
Assay: SEC

Protein | stoichiometry N
B1 | 2
B2 | 2
